Measurements from paper PMC6811539, “Minute-scale persistence of a GPCR conformation state triggered by non-cognate G protein interactions primes signaling” (Nature Communications, 2019).

Biological target: β2-AR of the β2-AR-Sp SPASM sensor (human) (UniProt P07550)

**Q.** With Sp (Gαs C terminus peptide) as the substance, how does the critical concentration (CC) of unlabeled peptide for enhanced isoproterenol-stimulated ΔFRET of the β2-AR-Sp sensor in native membranes (peptide 100 nM to 100 μM) read?
**A.** 1.5 µM
